Substrate in data set [1]: O=C(O)C(=O)Cc1ccccc1
As to the kind of experiment: decarboxylase activity, cell extract of decarboxylase-null yeast, Michaelis-Menten. It counts as biochemical, Saccharomyces kudriavzevii. Particulars: cell extract from aerobic ethanol-limited chemostat culture, phenylalanine as nitrogen source.

Substrate in data set [2]: O=C(O)C(=O)Cc1ccccc1
As to the kind of experiment: cells, lysate or membranes. The note with it: cell extract from aerobic ethanol-limited chemostat culture, phenylalanine as nitrogen source.

B1: SkAro10p (Saccharomyces kudriavzevii IFO 1802) (protein)
chain: MTPVTINTFVNQKEPHLVSNELATISFGEYIFRRLLSTGTKSVFGVPGDFNLSLLEYLYAPSVESAGLKWIGTCNELNAAYAADGYSRYSNNIGCLVTTFGVGELSALNGVAGSFAENVKVLHIVGVAKSIDSRSDNFRDRNMHHLVPQLHGSNFKGPNHKVYHDMVKDRVACSVAYLEDIETACDQVDNVIRDIYKYSKPGYIFVPADFADMSVTCENLINVPHISQQDCITYPSQIQLFDILDRITSWMYSSKTPAILGDVLTDRYGVSEILNKLIYATGIWNFSTVMGKSVIDEANPKYMGQYNGKEGLRQVYEHFESCDLVLHFGVDINEINNGHYTFTYKPNAKIIQFHPNYIRFVDTKYGHEQMFEGINFAPVLMELYKGIDVSRLSLQYDSGVTSYTNETMQLEDPTNDQSNNITQVHLQKVMPKFLSPGDVVVCETGSFQFSVRDFAFPTQLKYISQGFFLSIGMALPAALGVGIAMQDFPNAHISDENIGEGYKPRLILFEGDGAAQMTIQELSTILKCHITIDIFIWNNNGYTIERAIMGPTRAYNDVMSWKWTKLLEAFGDFDRKHTNSTVIEYPSKLAMKLEELKSSNTRDGIELVEVKLGVLDFPEQLKCMVDAAALKRNKK
notes: full-length ARO10 allele on plasmid pG-SkARO10-kX (pGREG526); expressed in S. cerevisiae CEN.PK 711-7C pdc1 pdc5 pdc6 aro10 thi3 null; cell extract
Usually Km stands for the substrate concentration at which the rate is half of its maximum. B1: in data set [1], the Km worked out at 70 ± 5 µM.

B2: ScAro10p (Saccharomyces cerevisiae S288C) (protein)
chain: MAPVTIEKFVNQEERHLVSNRSATIPFGEYIFKRLLSIDTKSVFGVPGDFNLSLLEYLYSPSVESAGLRWVGTCNELNAAYAADGYSRYSNKIGCLITTYGVGELSALNGIAGSFAENVKVLHIVGVAKSIDSRSSNFSDRNLHHLVPQLHDSNFKGPNHKVYHDMVKDRVACSVAYLEDIETACDQVDNVIRDIYKYSKPGYIFVPADFADMSVTCDNLVNVPRISQQDCIVYPSENQLSDIINKITSWIYSSKTPAILGDVLTDRYGVSNFLNKLICKTGIWNFSTVMGKSVIDESNPTYMGQYNGKEGLKQVYEHFELCDLVLHFGVDINEINNGHYTFTYKPNAKIIQFHPNYIRLVDTRQGNEQMFKGINFAPILKELYKRIDVSKLSLQYDSNVTQYTNETMRLEDPTNGQSSIITQVHLQKTMPKFLNPGDVVVCETGSFQFSVRDFAFPSQLKYISQGFFLSIGMALPAALGVGIAMQDHSNAHINGGNVKEDYKPRLILFEGDGAAQMTIQELSTILKCNIPLEVIIWNNNGYTIERAIMGPTRSYNDVMSWKWTKLFEAFGDFDGKYTNSTLIQCPSKLALKLEELKNSNKRSGIELLEVKLGELDFPEQLKCMVEAAALKRNKK
As for B2, the Km in data set [2] was found to be 150 ± 10 µM.
